# B1: library; numbered along this chain (parent)
# chain: MAAAAAAAAEQQSSNGPVKKSMREKAVERRSVNKEHNSNFKAGYIPIDEDRLHKTGLRGRKGNLAICVIILLFILAVINLIITLVIWAVIRIGPNGCDSMEFHESGLLRFKQVSDMGVIHPLYKSTVGGRRNENLVITGNNQPIVFQQGTTKLSVENNKTSITSDIGMQFFDPRTQNILFSTDYETHEFHLPSGVKSLNVQKASTERITSNATSDLNIKVDGRAIVRGNEGVFIMGKTIEFHMGGNMELKAENSIILNGSVMVSTTRLPSSSSGDQLGSGDWVRYKLCMCADGTLFKVQVTSQNMGCQISDNPCGNTH
# Variants of: B1
# Assay: SGCB cell-surface expression functional score (HA stain, bin4 vs bin1, normalised to synonymous) (log10 ratio); higher = more cell-surface SGCB (functional)
# Method in brief: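 Codon-saturation libraries of HA-tagged, YFP-fused human beta-sarcoglycan were lentivirally transduced at MOI <0.1 into HEK293 cells stably expressing alpha-, gamma- and delta-sarcoglycan. YFP-positive cells were sorted after 72 hours, grown 5–7 days, stained on ice with Alexa Fluor 647 anti-HA, fixed, sorted into four 5% intensity bins and amplicon-sequenced. The functional score is the log ratio of highest-bin to lowest-bin variant frequency, taken as the median over codons and duplicate transductions. Synonymous variants were scaled per section to mean 0, SD 0.5.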
row,Variant,SGCB cell-surface expression functional score (log10)
1,MAAAAAAAAEQQSSNGPVKKSMREKAVERRSVNKEHNSNFKAGYIPIDEDRLHKTGLRGRKGNLAICVIILLFILAVINLIITLVIWAVIRIPPNGCDSMEFHESGLLRFKQVSDMGVIHPLYKSTVGGRRNENLVITGNNQPIVFQQGTTKLSVENNKTSITSDIGMQFFDPRTQNILFSTDYETHEFHLPSGVKSLNVQKASTERITSNATSDLNIKVDGRAIVRGNEGVFIMGKTIEFHMGGNMELKAENSIILNGSVMVSTTRLPSSSSGDQLGSGDWVRYKLCMCADGTLFKVQVTSQNMGCQISDNPCGNTH [G93P],-1.64
2,MAAAAAAAAEQQSSNGPVKKSMREKAVERRSVNKEHNSNFKAGYIPIDEDRLHKTGLRGRKGNLAICVIILLFILAVINLIITLVIWAVIRIVPNGCDSMEFHESGLLRFKQVSDMGVIHPLYKSTVGGRRNENLVITGNNQPIVFQQGTTKLSVENNKTSITSDIGMQFFDPRTQNILFSTDYETHEFHLPSGVKSLNVQKASTERITSNATSDLNIKVDGRAIVRGNEGVFIMGKTIEFHMGGNMELKAENSIILNGSVMVSTTRLPSSSSGDQLGSGDWVRYKLCMCADGTLFKVQVTSQNMGCQISDNPCGNTH [G93V],-1.79
3,MAAAAAAAAEQQSSNGPVKKSMREKAVERRSVNKEHNSNFKAGYIPIDEDRLHKTGLRGRKGNLAICVIILLFILAVINLIITLVIWAVIRIRPNGCDSMEFHESGLLRFKQVSDMGVIHPLYKSTVGGRRNENLVITGNNQPIVFQQGTTKLSVENNKTSITSDIGMQFFDPRTQNILFSTDYETHEFHLPSGVKSLNVQKASTERITSNATSDLNIKVDGRAIVRGNEGVFIMGKTIEFHMGGNMELKAENSIILNGSVMVSTTRLPSSSSGDQLGSGDWVRYKLCMCADGTLFKVQVTSQNMGCQISDNPCGNTH [G93R],-0.4
4,MAAAAAAAAEQQSSNGPVKKSMREKAVERRSVNKEHNSNFKAGYIPIDEDRLHKTGLRGRKGNLAICVIILLFILAVINLIITLVIWAVIRISPNGCDSMEFHESGLLRFKQVSDMGVIHPLYKSTVGGRRNENLVITGNNQPIVFQQGTTKLSVENNKTSITSDIGMQFFDPRTQNILFSTDYETHEFHLPSGVKSLNVQKASTERITSNATSDLNIKVDGRAIVRGNEGVFIMGKTIEFHMGGNMELKAENSIILNGSVMVSTTRLPSSSSGDQLGSGDWVRYKLCMCADGTLFKVQVTSQNMGCQISDNPCGNTH [G93S],-0.25
5,MAAAAAAAAEQQSSNGPVKKSMREKAVERRSVNKEHNSNFKAGYIPIDEDRLHKTGLRGRKGNLAICVIILLFILAVINLIITLVIWAVIRIWPNGCDSMEFHESGLLRFKQVSDMGVIHPLYKSTVGGRRNENLVITGNNQPIVFQQGTTKLSVENNKTSITSDIGMQFFDPRTQNILFSTDYETHEFHLPSGVKSLNVQKASTERITSNATSDLNIKVDGRAIVRGNEGVFIMGKTIEFHMGGNMELKAENSIILNGSVMVSTTRLPSSSSGDQLGSGDWVRYKLCMCADGTLFKVQVTSQNMGCQISDNPCGNTH [G93W],-0.45
6,MAAAAAAAAEQQSSNGPVKKSMREKAVERRSVNKEHNSNFKAGYIPIDEDRLHKTGLRGRKGNLAICVIILLFILAVINLIITLVIWAVIRIQPNGCDSMEFHESGLLRFKQVSDMGVIHPLYKSTVGGRRNENLVITGNNQPIVFQQGTTKLSVENNKTSITSDIGMQFFDPRTQNILFSTDYETHEFHLPSGVKSLNVQKASTERITSNATSDLNIKVDGRAIVRGNEGVFIMGKTIEFHMGGNMELKAENSIILNGSVMVSTTRLPSSSSGDQLGSGDWVRYKLCMCADGTLFKVQVTSQNMGCQISDNPCGNTH [G93Q],-0.8
7,MAAAAAAAAEQQSSNGPVKKSMREKAVERRSVNKEHNSNFKAGYIPIDEDRLHKTGLRGRKGNLAICVIILLFILAVINLIITLVIWAVIRITPNGCDSMEFHESGLLRFKQVSDMGVIHPLYKSTVGGRRNENLVITGNNQPIVFQQGTTKLSVENNKTSITSDIGMQFFDPRTQNILFSTDYETHEFHLPSGVKSLNVQKASTERITSNATSDLNIKVDGRAIVRGNEGVFIMGKTIEFHMGGNMELKAENSIILNGSVMVSTTRLPSSSSGDQLGSGDWVRYKLCMCADGTLFKVQVTSQNMGCQISDNPCGNTH [G93T],0.23
8,MAAAAAAAAEQQSSNGPVKKSMREKAVERRSVNKEHNSNFKAGYIPIDEDRLHKTGLRGRKGNLAICVIILLFILAVINLIITLVIWAVIRIYPNGCDSMEFHESGLLRFKQVSDMGVIHPLYKSTVGGRRNENLVITGNNQPIVFQQGTTKLSVENNKTSITSDIGMQFFDPRTQNILFSTDYETHEFHLPSGVKSLNVQKASTERITSNATSDLNIKVDGRAIVRGNEGVFIMGKTIEFHMGGNMELKAENSIILNGSVMVSTTRLPSSSSGDQLGSGDWVRYKLCMCADGTLFKVQVTSQNMGCQISDNPCGNTH [G93Y],-1.86
9,MAAAAAAAAEQQSSNGPVKKSMREKAVERRSVNKEHNSNFKAGYIPIDEDRLHKTGLRGRKGNLAICVIILLFILAVINLIITLVIWAVIRIGCNGCDSMEFHESGLLRFKQVSDMGVIHPLYKSTVGGRRNENLVITGNNQPIVFQQGTTKLSVENNKTSITSDIGMQFFDPRTQNILFSTDYETHEFHLPSGVKSLNVQKASTERITSNATSDLNIKVDGRAIVRGNEGVFIMGKTIEFHMGGNMELKAENSIILNGSVMVSTTRLPSSSSGDQLGSGDWVRYKLCMCADGTLFKVQVTSQNMGCQISDNPCGNTH [P94C],-0.07
10,MAAAAAAAAEQQSSNGPVKKSMREKAVERRSVNKEHNSNFKAGYIPIDEDRLHKTGLRGRKGNLAICVIILLFILAVINLIITLVIWAVIRIGLNGCDSMEFHESGLLRFKQVSDMGVIHPLYKSTVGGRRNENLVITGNNQPIVFQQGTTKLSVENNKTSITSDIGMQFFDPRTQNILFSTDYETHEFHLPSGVKSLNVQKASTERITSNATSDLNIKVDGRAIVRGNEGVFIMGKTIEFHMGGNMELKAENSIILNGSVMVSTTRLPSSSSGDQLGSGDWVRYKLCMCADGTLFKVQVTSQNMGCQISDNPCGNTH [P94L],-0.17
11,MAAAAAAAAEQQSSNGPVKKSMREKAVERRSVNKEHNSNFKAGYIPIDEDRLHKTGLRGRKGNLAICVIILLFILAVINLIITLVIWAVIRIGKNGCDSMEFHESGLLRFKQVSDMGVIHPLYKSTVGGRRNENLVITGNNQPIVFQQGTTKLSVENNKTSITSDIGMQFFDPRTQNILFSTDYETHEFHLPSGVKSLNVQKASTERITSNATSDLNIKVDGRAIVRGNEGVFIMGKTIEFHMGGNMELKAENSIILNGSVMVSTTRLPSSSSGDQLGSGDWVRYKLCMCADGTLFKVQVTSQNMGCQISDNPCGNTH [P94K],0.29
12,MAAAAAAAAEQQSSNGPVKKSMREKAVERRSVNKEHNSNFKAGYIPIDEDRLHKTGLRGRKGNLAICVIILLFILAVINLIITLVIWAVIRIGGNGCDSMEFHESGLLRFKQVSDMGVIHPLYKSTVGGRRNENLVITGNNQPIVFQQGTTKLSVENNKTSITSDIGMQFFDPRTQNILFSTDYETHEFHLPSGVKSLNVQKASTERITSNATSDLNIKVDGRAIVRGNEGVFIMGKTIEFHMGGNMELKAENSIILNGSVMVSTTRLPSSSSGDQLGSGDWVRYKLCMCADGTLFKVQVTSQNMGCQISDNPCGNTH [P94G],-0.25
13,MAAAAAAAAEQQSSNGPVKKSMREKAVERRSVNKEHNSNFKAGYIPIDEDRLHKTGLRGRKGNLAICVIILLFILAVINLIITLVIWAVIRIGHNGCDSMEFHESGLLRFKQVSDMGVIHPLYKSTVGGRRNENLVITGNNQPIVFQQGTTKLSVENNKTSITSDIGMQFFDPRTQNILFSTDYETHEFHLPSGVKSLNVQKASTERITSNATSDLNIKVDGRAIVRGNEGVFIMGKTIEFHMGGNMELKAENSIILNGSVMVSTTRLPSSSSGDQLGSGDWVRYKLCMCADGTLFKVQVTSQNMGCQISDNPCGNTH [P94H],0.01
14,MAAAAAAAAEQQSSNGPVKKSMREKAVERRSVNKEHNSNFKAGYIPIDEDRLHKTGLRGRKGNLAICVIILLFILAVINLIITLVIWAVIRIGFNGCDSMEFHESGLLRFKQVSDMGVIHPLYKSTVGGRRNENLVITGNNQPIVFQQGTTKLSVENNKTSITSDIGMQFFDPRTQNILFSTDYETHEFHLPSGVKSLNVQKASTERITSNATSDLNIKVDGRAIVRGNEGVFIMGKTIEFHMGGNMELKAENSIILNGSVMVSTTRLPSSSSGDQLGSGDWVRYKLCMCADGTLFKVQVTSQNMGCQISDNPCGNTH [P94F],0.24
15,MAAAAAAAAEQQSSNGPVKKSMREKAVERRSVNKEHNSNFKAGYIPIDEDRLHKTGLRGRKGNLAICVIILLFILAVINLIITLVIWAVIRIGDNGCDSMEFHESGLLRFKQVSDMGVIHPLYKSTVGGRRNENLVITGNNQPIVFQQGTTKLSVENNKTSITSDIGMQFFDPRTQNILFSTDYETHEFHLPSGVKSLNVQKASTERITSNATSDLNIKVDGRAIVRGNEGVFIMGKTIEFHMGGNMELKAENSIILNGSVMVSTTRLPSSSSGDQLGSGDWVRYKLCMCADGTLFKVQVTSQNMGCQISDNPCGNTH [P94D],-1.08
16,MAAAAAAAAEQQSSNGPVKKSMREKAVERRSVNKEHNSNFKAGYIPIDEDRLHKTGLRGRKGNLAICVIILLFILAVINLIITLVIWAVIRIGANGCDSMEFHESGLLRFKQVSDMGVIHPLYKSTVGGRRNENLVITGNNQPIVFQQGTTKLSVENNKTSITSDIGMQFFDPRTQNILFSTDYETHEFHLPSGVKSLNVQKASTERITSNATSDLNIKVDGRAIVRGNEGVFIMGKTIEFHMGGNMELKAENSIILNGSVMVSTTRLPSSSSGDQLGSGDWVRYKLCMCADGTLFKVQVTSQNMGCQISDNPCGNTH [P94A],0.03
17,MAAAAAAAAEQQSSNGPVKKSMREKAVERRSVNKEHNSNFKAGYIPIDEDRLHKTGLRGRKGNLAICVIILLFILAVINLIITLVIWAVIRIGENGCDSMEFHESGLLRFKQVSDMGVIHPLYKSTVGGRRNENLVITGNNQPIVFQQGTTKLSVENNKTSITSDIGMQFFDPRTQNILFSTDYETHEFHLPSGVKSLNVQKASTERITSNATSDLNIKVDGRAIVRGNEGVFIMGKTIEFHMGGNMELKAENSIILNGSVMVSTTRLPSSSSGDQLGSGDWVRYKLCMCADGTLFKVQVTSQNMGCQISDNPCGNTH [P94E],-0.29
18,MAAAAAAAAEQQSSNGPVKKSMREKAVERRSVNKEHNSNFKAGYIPIDEDRLHKTGLRGRKGNLAICVIILLFILAVINLIITLVIWAVIRIGINGCDSMEFHESGLLRFKQVSDMGVIHPLYKSTVGGRRNENLVITGNNQPIVFQQGTTKLSVENNKTSITSDIGMQFFDPRTQNILFSTDYETHEFHLPSGVKSLNVQKASTERITSNATSDLNIKVDGRAIVRGNEGVFIMGKTIEFHMGGNMELKAENSIILNGSVMVSTTRLPSSSSGDQLGSGDWVRYKLCMCADGTLFKVQVTSQNMGCQISDNPCGNTH [P94I],-0.61
19,MAAAAAAAAEQQSSNGPVKKSMREKAVERRSVNKEHNSNFKAGYIPIDEDRLHKTGLRGRKGNLAICVIILLFILAVINLIITLVIWAVIRIGMNGCDSMEFHESGLLRFKQVSDMGVIHPLYKSTVGGRRNENLVITGNNQPIVFQQGTTKLSVENNKTSITSDIGMQFFDPRTQNILFSTDYETHEFHLPSGVKSLNVQKASTERITSNATSDLNIKVDGRAIVRGNEGVFIMGKTIEFHMGGNMELKAENSIILNGSVMVSTTRLPSSSSGDQLGSGDWVRYKLCMCADGTLFKVQVTSQNMGCQISDNPCGNTH [P94M],0.27

# Reference: the supplement of paper PMC10266784
